The text below walks through data of article PMC12421856 (mBio, 2025).

What all share (details): both partners purified
For assay [1], the target named is trimeric SARS-CoV-2 S ectodomain (insect cell-expressed) (SARS-CoV-2 Wuhan-Hu-1 (MN908947), UniProt P0DTC2, stabilised). Kind of assay: SPR.
The target in assay [2] is SARS-CoV-2 S HexaPro (SARS-CoV-2 Wuhan-Hu-1, HexaPro, stabilised). As to the kind of experiment: cryo-EM structure.
The target in assay [3] is trimeric SARS-CoV-2 S ectodomain (insect cell-expressed) (SARS-CoV-2 Wuhan-Hu-1 (MN908947), UniProt P0DTC2, stabilised). Kind of assay: SPR. This is another data set of the same source. For orientation: In SPR one partner is held on a chip, and binding of the other changes the refractive index at the surface.

One may read the Kd as a measure of binding affinity in units of concentration. High values mean a looser complex, low ones a tighter complex. One may read the koff as a measure of how fast the partners let go of each other. The low end stands for slow dissociation, the high end for fast dissociation. The kon is the second-order rate constant of association. A higher kon goes with faster complex formation.

B1: pT1679 Fab (Fab, V domains shown)
VH: QVQLVQSGAEVKKPGSSVKVSCRASGGTFSSYAISWVRQAPGQGLEWMGTIIPVFGAPDYAQKFQGRVTITADESTSTAYMEVRSLRSEDTAVYYCARDASPYYYDRSGYPRWAEDLHHWGQGTMVTVSS
VL: QSVLTQPPSVSGAPGQRVTISCTGSSSNIGAGYDVHWYQQLPGTAPKLLIYGNSNRPSGVPDRFSGSKSGTSGSLAISGLQPEDEADYYCQSYDSSLSGSIFGGGTKLTVL
notes: also called Fab fragment of pT1679; source: Drosophila S2 cells, purified (Strep-Tactin XT, SEC)
In the case of B1, in assay [1], the “fold higher affinity than for the RBD” value was ~3 fold.

B2: pT1679 Fab (Fab, V domains shown)
VH: B1 VH
VL: B1 VL
notes: source: Drosophila S2 cells, purified (Strep-Tactin XT, SEC)
As to B2, in assay [2], the “stoichiometry N” value is 3 pT1679 molecules per trimeric S protein. Besides, in assay [3], the affinity, expressed as Kd, was 0.13 nM; the koff worked out at 0.00012 s⁻¹; the kon came to 900000 M⁻¹ s⁻¹.
